Assay results taken from patent US10328100B2 (Amorphical Ltd., priority 2007, dated 2019).
Where “and” joins values, the source holds several entries; their conditions need not be identical. Equal values may be shown once. Entries after “also recorded” stand apart in the source; their conditions may differ. Each block holds one molecule with its values, some of them ahead of it.

Key:
GAP10 transcripts = test: in vivo silencing of GAP10 transcripts during premolt; set-up: species or system C. quadricarinatus
Procedure: In order to examine the effect of in vivo silencing of GAP10 transcripts during premolt, intermolt males (MMI=0), each weighing 5-10 g were divided to four groups. Ten animals were injected daily with both ecdysone, and dsRNA of GAP 10; eight were injected with ecdysone; six were injected with both ecdysone and dsRNA of CqVg; and four were injected with ecdysone carrier only, i.e., 10% ethanol in Diethyl pyrocarbonate-treated doubly distilled water. Injections were given into the sinus of the first abdominal segment. For each individual crayfish the experiment was terminated at MMI=0.1, at which time the animal was anesthetized and its gastroliths were dissected out. Premolt duration was defined as the number of days until termination. […] Another group was injected with ecdysone and CqVg dsRNA (a hepatopancreatic-specific gene found mostly in reproductive females) and served as a control for sequence-specific silencing.
For analysis of the gastrolith surface roughness, optical phase interference microscopy (OPIM) analysis was used, providing topographic images of representative surface samples from each group (FIG. 37B).

GAP65 transcript = test: GAP65 silencing by in vivo injections of GAP65 dsRNA (RNAi) to intermolt crayfish; set-up: species or system Cherax quadricarinatus
Procedure: Relative GAP65 transcript levels in the gastrolith epithelial disc following silencing using GAP65 dsRNA were measured using realtime RT-PCR and presented in FIG. 4. GAP65 levels were evaluated in crayfish injected with ecdysone and GAP65 dsRNA, ecdysone and dsRNA carrier, ecdysone and C. quadricarinatus vitellogenin (CqVg) dsRNA, and a control injected with both carriers. CqVg an hepatopancreatic specific gene found mostly in reproductive females, served as a control for sequence specific silencing. […] In the crayfish injected with ecdysone and CqVg dsRNA, GAP65 transcript levels were similar to the levels detected in the ecdysone and dsRNA carrier injected group. In the control carriers injected crayfish GAP65 transcript levels were higher than the levels found in the ecdysone and GAP65 dsRNA injected crayfish but lower than the levels detected in both the ecdysone and dsRNA injected, and the ecdysone CqVg dsRNA injected crayfish.
In order to test the role of GAP65 in gastrolith formation, an RNAi (RNA interference) technique using in vivo injections of GAP65 dsRNA to intermolt crayfish was applied. The initiation of gastrolith formation was achieved by injection of ecdysone. In FIG. 5 gastrolith of crayfish injected with either ecdysone+GAP65 dsRNA, ecdysone+dsRNA carrier, or with carriers of both ecdysone and dsRNA can be seen. FIG. 5A is a lateral view of a representative gastrolith dissected from each treatment group. […] In the control carriers injected the gastrolith appeared undeveloped or in an initial growth stage. […] The control carrier gastrolith was too small to be detected by the X-ray imaging.
Scanning electron microscope (SEM) images of gastroliths dissected from crayfish injected with GAP65 dsRNA and ecdysone, and from crayfish injected only with ecdysone and dsRNA carrier, are presented in FIG. 6. FIG. 6A-B depict images of a cross section through the central part of the gastrolith. […] The dense mineral layered structure observed in the gastrolith of ecdysone and carrier injected is replaced with a loosely packed columnar mineralization structure, which resembles hollow straws, in the gastrolith of ecdysone and GAP65 dsRNA injected crayfish.

C. quadricarinatus = conditions: cited from earlier work
[1] = stability of ACC held at room temperature, tested by Raman spectroscopy; assay type: physicochemical
Procedure: The precipitated calcium carbonate was checked over long periods for the amorphous/crystalline state.
(§1) 100 μl of 1M CaCl2 was added to 10 ml double distilled water (final concentration: 10 mM). 80 μl from the protein extraction solution (1.2 μg/μl) were added (final concentration ˜10 μg/ml), 100 μl of 1M Na2CO3 (final concentration: 10 mM) was added following an intensive shaking. The vial was centrifuged for 5 min at 4000 rpm, the precipitate was smeared over a glass slide and instantly dried with air flow. […] The observations were confirmed by Raman spectroscopy.

[2] = in vitro calcium carbonate precipitation assay testing the stabilization of ACC; assay type: physicochemical; conditions: for form of calcium carbonate precipitated in the presence of the additive: in vitro precipitation from calcium salt and carbonate
Description: Analysis of the product may comprise testing the resultant CaCO3 by various methods (as XRD, electron diffraction, SEM) to verify its amorphous nature. […] The phosphate peak at 950 cm^−1, is proportional to the phosphate content in the sample. Yet, the ratio between 1080 to 950 cm^−1 is proportional, but not directly indicative of the CO3^2−/[…] ratio.
FIG. 7 presents precipitation results of calcium carbonate in the presence of GAP65 and in the presence of other protein (trypsin). SEM images in FIG. 7A indicate the distinct polymorph of calcium carbonate in each treatment.
as §1
100 μl of 1M CaCl2 were added to 10 ml double-distilled water (DDW), attaining the final concentration of […]. 200 μl of P-serine (P-Ser) solution (100 mM) were added to the solution, attaining 2 mM of P-Ser. 100 μl of 1M Na2CO3 (final concentration: 10 mM) were added following an intensive shaking. The vial was centrifuged for 5 min at 4000 rpm at room temperature. The upper solution was removed and the precipitation was smeared over a glass slide and instantly dried by air flow.

[3] = calcium binding on nitrocellulose membrane after SDS-PAGE; conditions: gastrolith protein fraction transferred to nitrocellulose membrane
Procedure: FIGS. 33A-B. relate to the identification of GAP10 and characterization of its phosphorylation and calcium-binding properties; FIG. 33A, left: SDS-PAGE stained with Coomassie blue; middle: Staining of the same gel for phosphoproteins; right: transfer of the same fraction to a nitrocellulose membrane and incubation with […]. Spots identified as GAP10 by LC-MS are circled. Abbreviations: PC (positive control).
(§2) Proteins that were both phosphorylated and calcium-binding were prepared for LC-MS. Two of them, migrating at apparent molecular masses of ˜9 and ˜11 kDa (circled), were identified as GAP10 (FIG. 33B), and their pIs were calculated as 5 and 5.5, respectively. Since GAP10 has a mildly acidic pI, it is negatively charged at the pH of the gastrolith pouch, which is approximately 8.7.

[4] = isoelectric focusing then SDS-PAGE of gastrolith protein fraction; assay type: physicochemical; conditions: two spots of ~9 and ~11 kDa identified as GAP10, respectively
Procedure: as §2

Molecule: C[C@H]([C@H](O)CCC(C)(C)O)[C@H]1CC[C@@]2(O)C3=CC(=O)[C@@H]4C[C@@H](O)[C@@H](O)C[C@]4(C)[C@H]3CC[C@]12C [ecdysone]
Swedish height (SH) of gastrolith surface (GAP10 transcripts; OPIM topographic images): 4.4±0.5 μm
average premolt duration (number of days until reaching MMI=0.1) (GAP10 transcripts; repeated daily injections to intermolt males, dsRNA given together with ecdysone): 10.1 days
gastrolith surface appearance (GAP10 transcripts; top view of dissected gastroliths): fairly smooth
gastrolith spherule size (GAP65 transcript; SEM x15000): 40-60 nm
gastrolith structure by SEM (GAP65 transcript; cross section through central part of gastrolith): normal gastrolith appearance
gastrolith morphology (GAP65 transcript; dissected gastrolith, lateral view, gastrolith formation initiated by ecdysone): normal with no deformities
gastrolith mineral density by X-ray imaging (GAP65 transcript; dorsal X-ray view prior to dissection): normal with no effects on mineral densities
typical induced premolt duration until ecdysis (C. quadricarinatus; known for ecdysone administration): 10 to 14 days
peak observed molt mineralization index (MMI) (C. quadricarinatus; reached 1-2 days before the molt event): 0.125-0.145

B1: GAP65: Negatively charged glycoprotein of about 65 kDa from Cherax quadricarinatus gastrolith, SEQ ID NO. 1; used as enriched DEAE fraction 17 (protein, listed as Cherax quadricarinatus)
chain: MIRRVTTPLLALLLAGWVVAQTTDMDPEQYCARRDDEYFRKDFGDPAEFASDYRANCGVYYRCVPAPAGKRSISASQCQSELFFDVQQQICERKSKVTNCEQIDKEHPPQPFWPLREGEESQCKSGEIMCGSGECLPQHRFCDENSDCADGSDENICTPDKDPNRADVCEPRTCLWSQGCFCSVDGTRIPGDLTVDQTPQMITITFTGAINERNFRIFQDVFKDTVKHKGNDCTPKGTFFISHGFSNYSAIQELNRVGHEIAVSSITNNDNPDYWSKLSALDYEAEMDGARLIIEKFANITANEVLGIRVPKQRVGGNRQFRMMVDWGFLYDSSISAPMGRLPLWPYTLMHRMPHKCLGNDQNCPSQNFTVWEMVINEMDRRDDPQFDERLTGCHFVDQCANIQSPEQFRAFLDNNLARHYRTNRAPLGLHFTSGYFETRRDFLREFVKWVRETALSGDYFFVTMQQVINWMEAPTELTAINNFQEWKGKCEVKGQPYCSLPNPCPKKVPRIFPNEEEMFLYTCMECPNTYPWLGDPHGNGFLDIPDF
Raman spectra (around the 1085 peak) compared with calcite ([1]; 6.5-month old ACC, room temperature): mixture seemingly comprising ACC and vaterite
nanosphere size of ACC ([1]; SEM 40 days after the precipitation): 50-500 nm
time the ACC remained stable (amorphous state kept) ([1]; room temperature, Raman spectra): at least 1 months
ACC share of the total CaCO3 ([2]; 10 mM CaCl2, 10 mM Na2CO3, ~10 μg/ml protein, estimated): at least 50%
Raman spectroscopy (RS) of the CaCO3 precipitate ([2]; after precipitation and drying, broad peak about 1080 cm^-1 indicates ACC): distinct spectra of ACC
form of calcium carbonate precipitated in the presence of the additive ([2]; SEM): amorphous CaCO3; also recorded: amorphous form (ACC)
CaCO3 deposits characterized by polarized microscope ([2]; precipitation in the presence of GAP65, confirmed by Raman spectroscopy): mixture of calcite, vaterite, and ACC

B2: trypsin: Other (inert) protein used in equivalent amount as control in the precipitation assay (protein, UniProt P00760 24-246, looked up)
Serine protease 1: IVGGYTCGANTVPYQVSLNSGYHFCGGSLINSQWVVSAAHCYKSGIQVRLGEDNINVVEGNEQFISASKSIVHPSYNSNTLNNDIMLIKLKSAASLNSRVASISLPTSCASAGTQCLISGWGNTKSSGTSYPDVLKCLKAPILSDSSCKSAYPGQITSNMFCAGYLEGGKDSCQGDSGGPVVCSGKLQGIVSWGSGCAQKNKPGVYTKVCNYVSWIKQTIASN
form of calcium carbonate precipitated in the presence of the additive ([2]; SEM): rapid crystallization
size of calcium carbonate crystals formed ([2]; same conditions, control protein, SEM): 10 μm

calcium binding [3]: calcium-binding ability
B3: GAP10: Gastrolith protein of Cherax quadricarinatus, calculated 10 kDa, SEQ ID NO. 24 (fragment SEQ ID NO. 25) (protein, listed as Cherax quadricarinatus)
chain: MKIFILLVVIGVVSAQLGAGQVGGAAPAQGAGGAAGVGGPGAAPVNPYGPKVYGSGLNNPFAFPHNTWEVSRAAAVAATNPNLYVRVESDGGWEFTNRFGEKVDVYNSFGQELD
pI [4]: 5 and 5.5
